Data taken from the supplement of paper PMC12042874.
± gives the uncertainty stated by the source.

Experiment: amyloid nucleation score (Sup35N fusion, yeast selection) (log enrichment); library NNK3; higher = more nucleation; inactive = no reads after selection
Method in brief: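 DiMSum was used to calculate nucleation scores as log enrichment of output over input reads, centred on the mode score of non-aggregating sequences. Sequences with fewer than 100 input reads were not scored. Input and output came from Illumina sequencing of plasmid inserts in psi-negative yeast expressing peptides of 20 random codons fused to Sup35N, induced 24 hours with 100 μM copper sulfate and then grown 7 days at 30°C on medium lacking adenine and uracil.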

| Substance | amyloid nucleation score |
| --- | --- |
| NAHSHGYGSVPGR | inactive |
| YLSSSYVVGDMSCV | inactive |
| PRYGEVGATSFSDVTETML | inactive |
| LFMCMIFDCDIRIVNSVGCI | 1.43 ± 0.14 |
| SDHLQ | inactive |
| IHILTKVWFSCVRRSLS | inactive |
| ISLGCLYLFCYVTGCICSVG | 1.49 ± 0.094 |
| RRAVVLSVRGWRSAVTSRFS | inactive |
| VVDGSRCPPLSLSSDMWAR | inactive |
| YYLSTTGMWNFVSSNGALYG | -0.793 ± 1.3 |
| YAHLAL | inactive |
| WSVQMNRITDSSLDCMMMH | inactive |
| LPKCQLLLRRCRV | inactive |
| VFHRQERMLTPCT | inactive |
| NRKSRSYTLFLV | inactive |
| KFLRVFVKRTLESLRRVTSV | inactive |
| QSLLSSLLGSYSRLEKLNVD | inactive |
| RSFRSKPKYLLTSDTCWSLT | inactive |
| GVTCKHRPAKYVQDRMNF | inactive |
| FWGMLVEYLVNSQCYIKFE | inactive |
| GIIMPKSRLVPTWTQSRSCC | inactive |
| LWCCEYRNRAATMRVPDPEL | inactive |
| VTLRCNGDMVYHYLPCGVLR | inactive |

| Substance | amyloid nucleation score |
| --- | --- |
| MRSTNLACAGMHIN | inactive |
| SISYINRKHTRNDTPRLRGV | inactive |
| FIMNARGVPLEGWWSDGSDK | inactive |
| LCVRYDMSEGLRKGWWYGVG | inactive |
| LVLSVWKLKLSGLALIFWYG | inactive |
| HDRDHDMINSFIAFRQYWPW | 0.339 ± 0.34 |
| FEVWRTGLCDRARGTVNRLK | inactive |
| VRYSPDRKFGETCIKQAVMT | inactive |
| ALVLNLDRVWVSLTDGPWSD | inactive |
| ERFRSLSGTVEEG | inactive |
| LVRCSNTR | inactive |
| IVWTVFNALQPLGNALRVSV | inactive |
| AGQFPREQ | inactive |
| FVWNMFSASLIKI | inactive |
| CRINEWLGIGNSVSSSDHMG | inactive |
| ESGNS | inactive |
| VIGTGN | inactive |
| AIDLKLAKSEWGWSALGWFL | inactive |
| LGYISFGFPVEDNWVHLACD | inactive |
| WYSRLRLEQMRKWCHRVL | inactive |
| DMVLLWQEFDCGKVACLSGG | inactive |
| ETAGMGTPSVRAHGLASGSV | -0.672 ± 1.8 |
| VLMISCTS | inactive |

| Substance | amyloid nucleation score |
| --- | --- |
| DSGSHNDCNGCSNY | inactive |
| VCAVSFGRWYG | inactive |
| LRPRYSAYILQSRR | inactive |
| FGWLYNLNVSDIGTGD | inactive |
| MRARLFNRITYIGNECNVLS | inactive |
| SSDNIVSGWWALSNKSATFV | inactive |
| LFASWEDFLASSRYWRLEKR | 0.356 ± 0.39 |
| DFIRRVHYLKLSVWDVMTMR | inactive |
| LARQFF | inactive |
| AMEEDIYLTNDYTIIM | 0.45 ± 0.39 |
| ICAMAYADRTFSTSKGSK | inactive |
| MIGLDDWVLALRVRRCSLLV | inactive |
| YSIDMHVNVHGTYYLMSKWV | 1.73 ± 0.12 |
| DYTSYILLS | inactive |
| RRGIWDSVKMEKFL | inactive |
| SMDTE | 0.734 ± 0.17 |
| SMSIYPVCLTF | inactive |
| VSYCAWSFEG | inactive |
| VVEGSILACVNRGGKKYYDC | inactive |
| EHFRGRVLVRCLL | inactive |
| VIYRSYLRIDSFIGRGGLII | 0.567 ± 0.26 |
| YSTMLLVHYMFLKIE | inactive |
| YDKWSRSMYVKLCLGAALSW | inactive |

| Substance | amyloid nucleation score |
| --- | --- |
| SVNFELYDMITRC | inactive |
| MMGKRDALVFN | inactive |
| LHVFSECRFIRSLLGPNGIF | inactive |
| LYLYSWFC | inactive |
| PSHTLRNTSLSMSVSTTHKA | inactive |
| FSYCDGRLLSSNRYYSESLY | inactive |
| LFSQAHGYRDVLGGFRVFWV | inactive |
| KRLQWMYYL | inactive |
| RRFTHRIEVRTSVAIS | inactive |
| RPMRDCIGHSQS | inactive |
| QYCSGSLKFRGVPIFNGDDG | inactive |
| KWCKKKQFKSLDWLTYDI | inactive |
| LQSEPVLSDTSMSGVVASYF | inactive |
| ILFNENITKMSLFNCDKFIC | 1.1 ± 0.15 |
| VVYTGTNGRLQDRA | inactive |
| CLFVCDYGLFECGQMVVEVY | inactive |
| VTMVSYYTCGEHNKVNILMQ | 1.42 ± 0.097 |
| VSAAYLRTVRQ | inactive |
| YRPWHDIRTICCSTSSSTIE | 2.5 ± 0.063 |
| RYFNGPYLGRTVFEFT | inactive |
| LFYGHVNLASYRVSNRSKTR | inactive |
| PEFDLCDINSSLGSMRFWQW | inactive |
| YWIEAPIFYPLFTAIVKQAM | 0.294 ± 0.49 |

| Substance | amyloid nucleation score |
| --- | --- |
| VVLIFWWKSQGMSMIVFVIY | inactive |
| TDKFWLIGDSTTSWIEVVFN | inactive |
| ASLRWVLRLCRNLHTSSMET | -0.824 ± 1.5 |
| FCEMHYRLDN | 0.424 ± 0.17 |
| HRIVHDSVLKRVFDYFR | inactive |
| SYSVSCTDGWSIVFMFSHIA | inactive |
| VFYLCNFWGCWTCSIAVIVS | 0.576 ± 0.17 |
| QSTPYYLGFTD | 0.988 ± 0.11 |
| NVRFDGKVWLG | 0.744 ± 0.31 |
| SVKLKLGLCFPLYVSGFGLL | inactive |
| FDSDRCIMCLTHLWILWGLR | inactive |
| DGMSMCRQLLKGVQKPDYLL | inactive |
| SHKFMRCGPQMASGCNWELA | inactive |
| IRGASYPSATNRHAAMLVWM | inactive |
| GWHYMYSGYANYIGFSLPLY | inactive |
| ANVARFMYSFVKQALSLWVR | inactive |
| DIQYWYTPVTKMTYSTNWFF | 1.26 ± 0.1 |
| KNTSCWAATSADQRRVDFRR | inactive |
| IESIH | inactive |
| NLRSLFKPWPVVPAYMRFME | inactive |
| ISLFGIMWIRLLHLRHESKA | inactive |
| WFERCLCLLTTRIKYLFSAD | inactive |
| TISSSLKRMWDIVFSLCNNI | inactive |

| Substance | amyloid nucleation score |
| --- | --- |
| SLTGLVILMAYRDPPGLAQF | 1.46 ± 0.13 |
| HPYSNVWMSL | inactive |
| SPYNPHAFVTYSFCVYKD | 1.88 ± 0.098 |
| LEGGSITCLSPC | inactive |
| GSSVVS | inactive |
| TQRVGERGIIMYHPWIGYYV | 0.189 ± 0.26 |
| LRQNTYMLLSGNIVCRIVSF | inactive |
| SQWWNVDPRSTQCASGAMRC | inactive |
| VFLLCSLILWRAQLQLVCSL | inactive |
| NMYGYADYYRAFRDSN | inactive |
| GCREICFNLCFKRSLTCALL | inactive |
| THRSRKSDPNRQSFIKCGHS | inactive |
| MMNGVGAWASFGLLNNYGGN | 0.291 ± 0.29 |
| HSNECFLGDSSNWWVYWAVR | inactive |
| SCVPWICWNCQVPGL | 0.881 ± 0.18 |
| AVMWYIPRDG | inactive |
| RHLDNFNINVTLNLSFRVGM | 2.52 ± 0.089 |
| GFFELYS | inactive |
| VTVLQM | inactive |
| TKCTYKLGYTLYTGVKDVVR | inactive |
| PRGMPIAIFSDWCRLRWGVF | inactive |
| PIAFSIALPRVVCRQ | inactive |
| RVQWALLSIKGHCS | 0.645 ± 0.24 |

| Substance | amyloid nucleation score |
| --- | --- |
| SCDRVFNLDVNRWKLMRKTC | inactive |
| FIYSFLSYHIWTFKPPVVVG | inactive |
| CFIVQWMLTLMCVFANCILT | inactive |
| TLWCNLSSGMMNFPTASRNL | 1 ± 0.091 |
| ISRDGVRCEVWMWPWPREPA | inactive |
| GVWKEHVTRAAVVSWKEGVN | inactive |
| TREIIYRDGQALQIAGWVSP | inactive |
| ILHHTWYMF | inactive |
| DELTNLPCY | -0.405 ± 0.79 |
| IFACLHGAREVFLFQWLGFE | inactive |
| PCPLGPYLGYFTETSYAHGM | inactive |
| PNRNYVCGMSCYGAVVSELR | inactive |
| EFVVCTQCRVCDLIAFLGRN | 2.84 ± 0.065 |
| SWMVQLVNTGVRWLVLANDA | inactive |
| LVFSNFYGYFRASC | inactive |
| DKNNLIFFLRAVCYFSSERT | 1.08 ± 0.11 |
| FDIFQGDINLHFLDVNITR | 0.397 ± 0.75 |
| LIKVTS | inactive |
| WSETNTFS | inactive |
| SVSSRHSAW | inactive |
